This note sets out measurements from US20190367619A1 (ARGENX, published 2019).

For experiment [1], the target named is T1, human galectin-10-His (recombinant human galectin-10 with TEV-cleavable N-terminal His-tag) (human).
T1 construct: SEC-MALLS: dimer in solution; also called Gal10-His; humanGal10-His
T1 chain: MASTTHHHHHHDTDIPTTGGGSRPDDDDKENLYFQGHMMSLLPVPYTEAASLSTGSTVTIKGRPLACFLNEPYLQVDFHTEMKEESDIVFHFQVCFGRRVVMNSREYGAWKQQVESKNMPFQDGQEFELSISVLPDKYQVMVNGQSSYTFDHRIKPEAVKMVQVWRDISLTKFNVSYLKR
Description: SPR Biacore T3000, mouse IgG1 captured by anti-mouse Fc, galectin-10-His as analyte. The protocol:
The binding capacity of the mouse IgG1 antibodies to galectin-10 was analyzed on Biacore T3000. For this purpose, a capture approach was set up. A CM5 Chip was coated with polyclonal anti-mouse Fc at 8000 RU, then a fixed concentration of the mouse IgG1 antibody panel (1.5 μg/mL), diluted in HBS-EP pH7.4, was captured to reach a binding signal around 150 RU. Finally, a serial dilution of galectin-10-His (serial dilution, 1 over 2 from 5 μg/mL) diluted in HBS-EP pH7.4 was injected. Raw data were analyzed via BIA evaluation software with a blank subtraction (4-3). The kd/KD and Rmax of each mAb to galectin-10-His was determined using the Fit Kinetics simultaneous ka/kd/Binding with mass transfer/Local Rmax on BIA evaluation software.

Experiment [2] has as its target T1, human galectin-10-His (recombinant …). Description: BLI tandem on galectin-10-His; buffer in place of the saturating antibody. The protocol: (§1) In order to identify the galectin-10 binding sites of the different clones, an epitope mapping method (TANDEM), using the BLI technology, was established. Briefly, the galectin-10-His was captured on anti-HIS 1K sensor tips, before incubation with an excess of one antibody (called the “saturating” antibody) then directly transferred to a solution containing the “competitor” antibody at a suboptimal concentration. If the “saturating” and the competitor antibody bind to the same binding sites, no binding of “competitor” will be detected (expressed in nm shift).

For experiment [3] the target is unchanged. The experiment is described as follows: BLI tandem on galectin-10-His; competitor: saturating 6B06 mIgG1 (10 ug/mL). The protocol:
as §1

For experiment [4] the target is unchanged. Description: ELISA, mouse IgG1 on coated galectin-10-His (0.2 ug/mL). The protocol:
In a similar setup to that used during the characterization of the scFv-human Fc molecules, the relative binding affinities of the 10 mouse IgG1 antibodies were analyzed by ELISA. A Maxisorp plate was coated overnight with 0.2 μg/mL of galectin-10-His. Then a serial dilution of each clone (from 100 nM, dilution 1/4, 12 points of dilutions) was incubated on coated galectin-10. After several washing steps, detection of the bound mouse IgG1 was carried out with an anti-mouse Fc-HRP antibody. Absorbance was measured at 450 nm (reference at 620 nm) with Tecan instrument. A mouse IgG1 isotype control was used as negative control. A polyclonal anti-galectin-10 antibody was used as positive control for the coating of galectin-10. The raw data (OD values) were plotted on GraphPad Prism 7.01. The EC50 values for each antibody, calculated with a non-linear regression (log(agonist) vs. response Variable slope (four parameters)), are reported in Table 7 below.

Experiment [5] concerns the target T2, TEV-cleaved wild-type recombinant human galectin-10 (soluble, in Fab complexes, or as recombinant galectin-10 … (human, UniProt Q05315 1-142)).
T2 sequence: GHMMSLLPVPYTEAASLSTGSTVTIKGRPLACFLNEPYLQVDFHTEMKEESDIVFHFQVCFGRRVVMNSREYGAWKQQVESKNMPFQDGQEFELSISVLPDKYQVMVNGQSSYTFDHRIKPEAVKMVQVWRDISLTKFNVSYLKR
Description: cell-based or functional assay.

Experiment [6] addresses T1, human galectin-10-His (recombinant …). Description: BLI tandem on galectin-10-His; isotype control as saturating antibody (10 ug/mL). The protocol:
as §1

Experiment [7] has the same target. Description: BLI tandem on galectin-10-His; competitor: saturating 6E10 mIgG1 (10 ug/mL). The protocol: as §1
Experiment [8] has the same target. The experiment is described as follows: BLI tandem on galectin-10-His; competitor: saturating 2C07 mIgG1 (10 ug/mL). The protocol:
as §1

The target is the same in experiment [9]. Description: BLI tandem on galectin-10-His; competitor: saturating 6A08 mIgG1 (10 ug/mL). The protocol:
as §1

The target is the same in experiment [10]. Description: BLI tandem on galectin-10-His; competitor: saturating 6F06 mIgG1 (10 ug/mL). The protocol:
as §1

For experiment [11] the target is unchanged. The experiment is described as follows: BLI tandem on galectin-10-His; competitor: saturating 1C09 mIgG1 (10 ug/mL). The procedure: as §1
The target is the same in experiment [12]. Description: BLI tandem on galectin-10-His; competitor: saturating 6A05 mIgG1 (10 ug/mL). The procedure:
as §1

For experiment [13] the target is unchanged. Description: BLI tandem on galectin-10-His; competitor: saturating 2F09 mIgG1 (10 ug/mL). The procedure:
as §1

Experiment [14] has the same target. The experiment is described as follows: BLI tandem on galectin-10-His; competitor: saturating 1D11 mIgG1 (10 ug/mL). The protocol: as §1
Experiment [15] has the same target. Description: BLI tandem on galectin-10-His; competitor: saturating 4E08 mIgG1 (10 ug/mL). The protocol: as §1

B1: 6A08 mouse IgG1 (antibody, V domains shown)
VH: QVQLVESGGGLVQPGGSLRLSCAASGFTFSSYAMSWVRQAPGKGPEWVSAINRGGGSTYYADSVKGRFTISRDNAKNTLYLQMNSLKPEDAAVYYCATPGDRLWYYRYDYWGQGAQVTVSS
VL: QTVVTQEPSLSVSPGGTVTLTCGLSSGSVTSSNYPGWYQQTPGQAPRLLIYNTNSRYSGVPNRFSGSISGNKAALIISGAQPEDEADYHCALNRVRGTYRVFGGGTHLTVL
notes: also called 6A08 mIgG1
Consider B1, for which, in experiment [1], the Kd was determined as 1 nM. Further, the koff in experiment [1] worked out at 0.00067 s⁻¹. Moreover, the “binding signal (nm)” value in experiment [2] was 1.08 nm; in [3] it was 0.05 nm; in experiment [6] it was 1.04 nm; in [7], -0.05 nm; in experiment [8] it was 0.05 nm; in experiment [9] it was -0.04 nm. The “binding signal (nm)” value in experiment [10] is 0.05 nm; in experiment [11], 0 nm; in [12], 0.05 nm; in experiment [13], 0 nm; in [14], 0.05 nm; in [15], -0.05 nm. In addition, the Bmax in experiment [4] amounted to 3.2 OD. Also, the EC50 in experiment [4] was 0.15 nM. For the same molecule, in [5], the “100% Solubilization of CLC (Conc uM)” value was greater than 10 µM.

B2: 2C07 mouse IgG1 (antibody, V domains shown)
VH: ELQLVESGGGLVQPGGSLRLSCAASGFTFSSYAMSWVRQAPGKGLEWVSNINSGGGSTGYADSVKGRFTISRDNAKNTLYLQMNSLKPEDMAVYYCAKYLRTYYPNAAFGMDYWGKGTLVTVSS
VL: QAVLTQPSAVSVSLGQTARITCQGGNFGRYYASWYQQKPGQAPVLVIYRDSERPSGIPERFSGSSSGDTATLTISGAQAEDEADYYCQSGRSSDNAVFGGGTHLTGL
notes: VH on mouse IgG1 heavy chain constant domains (CH1-CH2-CH3), VL on mouse lambda light chain constant domain; also called 2C07 mIgG1
For B2, the Kd in experiment [1] stood at 0.5 nM. Also, in experiment [1], the koff amounted to 0.00036 s⁻¹. Moreover, the “binding signal (nm)” value is 0.8 nm in experiment [2]; 0.04 nm in experiment [3]; 0.73 nm in experiment [6]; -0.04 nm in [7]; 0.03 nm in experiment [8]; -0.01 nm in experiment [9]. The “binding signal (nm)” value in experiment [10] was 0.04 nm; in [11] it was 0 nm; in experiment [12] it was 0.04 nm; in experiment [13], -0.01 nm; in experiment [14], 0.04 nm; in [15], -0.05 nm. The Bmax in [4] turned out to be 2.95 OD. Also, the EC50 in experiment [4] is 0.08 nM. Moreover, the “100% Solubilization of CLC (Conc uM)” value in experiment [5] is greater than 2.2 µM.

B3: 6E10 mouse IgG1 (antibody, V domains shown)
VH: QLQLVESGGGLVQPGGSLRLSCAASGFTFSSYWMYWVRQAPGKGLEWVSAINTGGGSTYYADSVKGRFTISRDNAKNTLYLQMNSLKPEDTALYYCARAGSGVAGTGYDYWGQGTQVTVSS
VL: QPVLNQPSAVSVSLGQTARITCQGGNFGYYYVSWYQQKPGQAPVLVIYRDSGRPSGIPERFSGSSSGDTATLTISGAQAEDEADYYCQSGSSSDNAVFGGGTHLTVL
notes: also called 6E010; 6E10 mIgG1
B3: in [1], the Kd is 0.5 nM. For the same molecule, the koff in experiment [1] turned out to be 0.00082 s⁻¹. Moreover, the “binding signal (nm)” value worked out at 1.38 nm in [2]; 0.04 nm in [3]; 1.34 nm in experiment [6]; 0 nm in experiment [7]; 0.06 nm in experiment [8]; 0.04 nm in experiment [9]. The “binding signal (nm)” value came out at 0.07 nm in [10]; 0.03 nm in [11]; 0.09 nm in experiment [12]; 0 nm in experiment [13]; 0.1 nm in experiment [14]; 0.1 nm in experiment [15]. Besides, the Bmax in experiment [4] worked out at 2.4 OD. Also, the EC50 in experiment [4] amounted to 0.17 nM. Moreover, in experiment [5], the “100% Solubilization of CLC (Conc uM)” value came out at 10.5 µM.

B4: 6B06 mouse IgG1 (antibody, V domains shown)
VH: QVQRQESGPGLVKPSQTLSLTCTVSGGSITTNYYSWSWIRQPPGKGLEWIGYIAYSGSTSYSPSLKSRTSISRDTSNNQFSLQLSSVTPEDTAVYYCARSRSSPTTFGMDYWGKGTLVTVSS
VL: SSALTQPSAVSVSLGQTARITCQGGNFGRYYVSWYTQKPGQAPVLVIYQDSERPTGIPERFSGSSSGDTATLTISGAQAEDEADYYCQSGTSSDNIVFGGGTHLTVL
notes: also called 6B06 mIgG1
On to B4, for which the Kd in experiment [1] came to 0.3 nM. Further, the koff in experiment [1] was 0.00306 s⁻¹. The “binding signal (nm)” value in [2] is 0.98 nm; in experiment [3], 0.03 nm; in [6], 0.94 nm; in experiment [7], -0.02 nm; in experiment [8] it was 0.04 nm; in [9] it was 0.02 nm. Moreover, the “binding signal (nm)” value in experiment [10] is 0.05 nm; in experiment [11], 0.01 nm; in experiment [12], 0.06 nm; in experiment [13] it was 0 nm; in [14] it was 0.07 nm; in [15], 0.03 nm. Also, the Bmax in experiment [4] amounted to 3.28 OD. The EC50 in experiment [4] was determined as 0.08 nM. Besides, the “100% Solubilization of CLC (Conc uM)” value in [5] was greater than 10 µM.

B5: 6F06 mouse IgG1 (antibody, V domains shown)
VH: QVQLVESGGGLVQPGGSLRLSCAASEFTFSRYSMSWVRQAPGKGLEWVSTINSGGGSTSYVDSVKGRFTISRDNAKNTLYLQMNSLKPEDTAVYYCTKSQGGISFSTQYGMDYWGKGTLVTVSS
VL: NFMLTQPSAVSVSLGQTARITCQGGNFGRYYANWYQQKPGQAPVLVIYKDSERPSGIPERFSGSSSGDTATLTISGAQAEDESDYYCQSGSVSDNAVFGGGTHLAVL
notes: also called 6F06 mIgG1
B5: the Kd in [1] came out at 0.7 nM. Besides, the koff in experiment [1] was 0.00487 s⁻¹. The “binding signal (nm)” value in experiment [2] is 1.22 nm; in experiment [3] it was 0.03 nm; in experiment [6] it was 1.15 nm; in [7], -0.03 nm; in experiment [8] it was 0.03 nm; in experiment [9] it was 0 nm. The “binding signal (nm)” value in experiment [10] stood at 0.04 nm; in [11], 0 nm; in [12], 0.05 nm; in experiment [13] it was 0 nm; in [14], 0.06 nm; in experiment [15] it was 0.02 nm. The Bmax in experiment [4] came out at 2.93 OD. In addition, the EC50 in experiment [4] stood at 0.08 nM. Further, in [5], the “100% Solubilization of CLC (Conc uM)” value came out at 7.57 µM.
